Measured values reported in paper PMC5741291 (2017).

Molecular target: Actin (F-actin, skeletal muscle) (Oryctolagus cuniculus, UniProt P68135)
Assay: stopped-flow light scattering

Kd: 1070 nM
B1: Myosin IIIA motor domain (p-huM3AMD) 311-1058 (protein)
chain: MGGTEKARRERIHTKKGNFNRPLISNLKDVDDLATLEILDENTVSEQLEKCYSRDQIYVYVGDILIALNPFQSLGLYSTKHSKLYIGSKRTASPPHIFAMADLGYQSMITYNSDQCIVISGESGAGKTENAHLLVQQLTVLGKANNRTLQEKILQVNNLVEAFGNACTIINDNSSRFGKYLEMKFTSSGAVVGAQISEYLLEKSRVIHQAIGEKNFHIFYYIYAGLAEKKKLAHYKLPENKPPRYLQNDHLRTVQDIMNNSFYKSQYELIEQCFKVIGFTMEQLGSIYSILAAILNVGNIEFSSVATEHQIDKSHISNHTALENCASLLCIRADELQEALTSHCVVTRGETIIRPNTVEKATDVRDAMAKTLYGRLFSWIVNCINSLLKHDSSPSGNGDELSIGILDIFGFENFKKNSFEQLCINIANEQIQYYYNQHVFAWEQNEYLNEDVDARVIEYEDNWPLLDMFLQKPMGLLSLLDEESRFPKATDQTLVEKFEGNLKSQYFWRPKRMELSFGIHHYAGKVLYNASGFLAKNRDTLPTDIVLLLRSSDNSVIRQLVNHPLTKTGNLPHSKTKNVINYQMRTSEKLINLAKGDTGEATRHARETTNMKTQTVASYFRYSLMDLLSKMVVGQPHFVRCIKPNSERQARKYDKEKVLLQLRYTGILETARIRRLGFSHRILFANFIKRYYLLCYKSSEEPRMSPDTCATILEKAGLDNWALGKTKVFLKYYHVEQLNLMRKEAIDK
modifications: phosphorylated by myosin IIIA kinase domain, MgADP
